In patent US20240287177A1 (Merck KGaA, published 2024):
Positions count from the first letter of the chain named.

T1: recombinant human NKp30 extracellular domain, his-tagged (human, UniProt O14931 19-135)
T1 construct: BLI used human NKp30 bought from Abcam (his-tagged ECD); also called rh NKp30 ECD; human NKp30 (Abcam); not shown: his tag
T1 sequence: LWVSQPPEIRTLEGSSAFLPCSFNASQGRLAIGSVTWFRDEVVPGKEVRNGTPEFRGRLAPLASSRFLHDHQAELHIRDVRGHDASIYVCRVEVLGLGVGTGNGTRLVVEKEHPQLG

B1: VHH2 SEEDbody eff- (bispecific antibody, part only; not given: silenced SEED Fc and cetuximab Fab, V domains shown, not shown: another chain or arm of the molecule; a dimerising Fc or GST; small tags and cut ends)
VHH: DVQLQESGGGLVQAGGSLRLSCAVSGQTWTNYHIGWFRQAPGKARESVASIEWGGRGTYATDSVKGRFTISRDNAKNTVYLQMNSLKPEDTAVYYCAAQSSSRSPLESNYDYWGQGTQVTVSS
B2: VHH1 SEEDbody eff- (bispecific antibody, part only; not given: silenced SEED Fc and cetuximab Fab, V domains shown, not shown: another chain or arm of the molecule; a dimerising Fc or GST; small tags and cut ends)
VHH: DVQLQESGGGLVQPGGSLRLSCATSGFTLDDYTIGWVRQAPGKEHEGVSCFSPSDGTTYYADSVKGRFTFSRDNAKNTVYLQMNSLKPEDTAVYYCAASFADGSSWCYDYWGQGTQVTVSS
B3: VHH1 (parental, as tested in Example 8) (VHH)
VHH: B2 VHH
notes: expressed and measured by BLI 'as described in Experiment 1' (there: bispecific SEEDbody on anti-human Fc sensors)
B4: VHH1.3 (humanized) (VHH)
VHH: B2 VHH with D1E, Q5V, L11V, T24A, F70I, V79L, K87R, P88A, Q116L
notes: as for B3
B5: VHH1.7 (humanized) (VHH)
VHH: B2 VHH with D1E, Q5V, L11V, T24A, E44G, H45L, V79L, K87R, P88A, Q116L
notes: as for B3
B6: VHH1.9 (humanized) (VHH)
VHH: EVQLVESGGGVVQPGGSLRLSCAASGFTLDDYTIGWVRQAPGKGLEGVSCFSPSDGTTYYADSVKGRFTISRDNAKNTLYLQMNSLRAEDTAVYYCAASFADGSSWCYDYWGQGTLVTVSS
notes: as for B3
B7: VHH1.2 (humanized) (VHH)
VHH: B6 VHH with A24T, G44E, L45H, I70F
notes: as for B3
B8: VHH1.6 (humanized) (VHH)
VHH: B6 VHH with A24T, I70F
notes: as for B3
B9: VHH1.8 (humanized) (VHH)
VHH: B6 VHH with A24T
notes: as for B3
B10: VHH1.1 (humanized) (VHH)
VHH: B6 VHH with A24T, G44E, L45H, I70F, L79V
notes: as for B3
B11: VHH1.5 (humanized) (VHH)
VHH: B6 VHH with L79V
notes: as for B3
B12: VHH1.4 (humanized) (VHH)
VHH: B6 VHH with A24T, I70F, L79V
notes: as for B3
B13: VHH2.12 (humanized) (VHH)
VHH: EVQLVESGGGVVQPGGSLRLSCAASGQTWTNYHIGWFRQAPGKGLEWVASIEWGGRGTYATDSVKGRFTISRDNAKNTVYLQMNSLRAEDTAVYYCAAQSSSRSPLESNYDYWGQGTLVTVSS
notes: as for B3
B14: VHH2.15 (humanized) (VHH)
VHH: B13 VHH with W47S, V79L
notes: as for B3
B15: VHH2.16 (humanized) (VHH)
VHH: B13 VHH with V79L
notes: as for B3

target: NKp30 on human NK cells (human) (UniProt O14931); experiment: cell-based or functional assay

Point of comparison: B1, EC50 (nM), MNC based killing of A431 cells, E:T 80:1 0.0132 nM. Against it:
- B2 — 7.7-fold lower, 0.00171 nM

Point of comparison: B1, EC50, lysis of A431 cells by isolated NK cells, E:T 10:1 0.0344 nM. Against it:
- B2 — 16-fold lower, 0.0022 nM

Point of comparison: B2, Max. IFNγ release (pg/ml), NK cells with A431 cells 753 pg/mL. Against it:
- B1 — within 1.5-fold, 580 pg/mL

Point of comparison: B2, Max. Killing (% Lysis), MNC based killing of A431 cells, E:T 80:1 53 % Lysis. Against it:
- B1 — lower, 51 % Lysis

Point of comparison: B2, Max. TNFα release (pg/ml), NK cells with A431 cells 104 pg/mL. Against it:
- B1 — within 1.5-fold, 118 pg/mL

target: FcγRIIIa on human NK cells (human) (UniProt P08637); experiment: cell-based or functional assay
Sequence (P08637 17-254): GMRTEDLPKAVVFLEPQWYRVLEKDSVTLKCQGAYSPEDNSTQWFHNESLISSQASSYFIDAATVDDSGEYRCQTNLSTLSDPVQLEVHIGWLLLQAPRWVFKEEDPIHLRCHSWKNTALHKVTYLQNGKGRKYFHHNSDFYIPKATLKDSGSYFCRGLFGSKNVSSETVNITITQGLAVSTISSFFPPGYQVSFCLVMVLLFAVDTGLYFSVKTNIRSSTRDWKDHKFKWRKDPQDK

Point of comparison: B1, EC50, lysis of A431 cells by isolated NK cells, E:T 10:1 0.0039 nM. Against it:
- B2 — within 1.5-fold, 0.0032 nM

In the case of B1, the fold increase of killing potency, eff+ against eff- is reported as 8.8 fold.

target: T1, recombinant human NKp30 extracellular …; experiment: BLI as in Example 1

Point of comparison: B5, Kd 0.533 nM. Against it:
- B3 — 2.1-fold lower, 0.248 nM
- B4 — 2-fold higher, 1.07 nM
- B6 — 2-fold higher, 1.06 nM
- B7 — 1.8-fold lower, 0.293 nM
- B8 — within 1.5-fold, 0.797 nM
- B9 — 2.1-fold higher, 1.13 nM
- B10 — 1.9-fold lower, 0.275 nM
- B11 — 1.7-fold higher, 0.888 nM
- B12 — within 1.5-fold, 0.547 nM

target: T1, recombinant human NKp30 extracellular …; experiment: BLI as in Example 1; remark: another data set of the same source

Point of comparison: B13, Kd 4.24 nM. Against it:
- B14 — 2.9-fold higher, 12.3 nM
- B15 — within 1.5-fold, 4.71 nM

target: T1, recombinant human NKp30 extracellular …; experiment: BLI as in Example 1, maximum binding capacity

Point of comparison: B7, “Emax (nm)” value 0.12 nm. Against it:
- B3 — higher, 0.13 nm
- B4 — the same, 0.12 nm
- B5 — lower, 0.09 nm
- B6 — lower, 0.1 nm
- B8 — higher, 0.14 nm
- B9 — lower, 0.1 nm
- B10 — higher, 0.13 nm
- B11 — lower, 0.1 nm
- B12 — the same, 0.12 nm

target: T1, recombinant human NKp30 extracellular …; experiment: BLI as in Example 1, maximum binding capacity; remark: another data set of the same source

Point of comparison: B13, “Emax (nm)” value 0.14 nm. Against it:
- B14 — lower, 0.07 nm
- B15 — lower, 0.11 nm

target: recombinant human NKp30 extracellular domain, his-tagged (human) (UniProt O14931); experiment: BLI, SEEDbody on anti-human Fc sensors, soluble NKp30, 1:1 fit

Point of comparison: B2, Kd 0.27 nM. Against it:
- B1 — 12-fold higher, 3.27 nM

Point of comparison: B1, koff 0.000646 s⁻¹. Against it:
- B2 — 2.9-fold lower, 0.000222 s⁻¹

Point of comparison: B1, kon 198000 M⁻¹ s⁻¹. Against it:
- B2 — 4.1-fold higher, 819000 M⁻¹ s⁻¹
